assay: soluble on expression in E. coli; label from the status in PepcDB or PDB records

Sequence	soluble on expression in E. coli
SMPSQQRVKRWGFSFDEILKDQVGRDQFLRFLESEFSSENLRFWLAVQDLKKQPLQDVAKRVEEIWQEFLAPGAPSAINLDSHSYEITSQNVKDGGRYTFEDAQEHIYKLMKSDSYARFLRSNAYQDLLLAKKKGKSLAGKRLTGLMQ	soluble
SMQAARLAKALRELGQTGWYWGSMTVNEAKEKLKEAPEGTFLIRDSSHSDYLLTISVKTSAGPTNLRIEYQDGKFRLDSIICVKSKLKQFDSVVHLIDYYVQMCKDKRTGPEAPRNGTVHLYLTKPLYTSAPSLQHLCRLTINKCTGAIWGLPLPTRLKDYLEEYKFQV	soluble
SMSTKGTILVTGGAGYIGSHTAVELLAHGYDVVIADNLVNSKREAIARIEKITGKTPAFHETDVSDERALARIFDAHPITAAIHFAALKAVGESVAKPIEYYRNNLDSLLSLLRVMRERAVKRIVFSSSATVYGVPERSPIDETFPLSATNPYGQTKLMAEQILRDVEAADPSWRVATLRYFNPVGAHESGLIGEDPAGIPNNLMPYVAQVAVGKLEKLRVFGSDYPTPDGTGVRDYIHVVDLARGHIAALDALERRDASLTVNLGTGRGYSVLEVVRAFEKASGRAVPYELVARRPGDVAECYANPAAAAETIGWKAERDLERMCADHWRWQENNPRGFV	soluble
SMSVKKPKRDDSKDLALCSMILTEMETHEDAWPFLLPVNLKLVPGYKKVIKKPMDFSTIREKLSSGQYPNLETFALDVRLVFDNCETFNEDDSDIGRAGHNMRKYFEKKWTDTFKVS	soluble
SMTTNVGDSTLADLLDHSCTSGSGSGLPFLVQRTVARQITLLECVGKGRYGEVWRGSWQGENVAVKIFSSRDEKSWFRETELYNTVMLRHENILGFIASDMTSRHSSTQLWLITHYHEMGSLYDYLQLTTLDTVSCLRIVLSIASGLAHLHIEIFGTQGKPAIAHRDLKSKNILVKKNGQCCIADLGLAVMHSQSTNQLDVGNNPRVGTKRYMAPEVLDETIQVDCFDSYKRVDIWAFGLVLWEVARRMVSNGIVEDYKPPFYDVVPNDPSFEDMRKVVCVDQQRPNIPNRWFSDPTLTSLAKLMKECWYQNPSARLTALRIKKTLTKID	soluble
SMVSPEEAVKWGESFDKLLSHRDGLEAFTRFLKTEFSEENIEFWIACEDFKKSKGPQQIHLKAKAIYEKFIQTDAPKEVNLDFHTKEVITNSITQPTLHSFDAAQSRVYQLMEQDSYTRFLKSDIYLDLMEGRPQRPTNLRRRSRSFTCNE	soluble
SNADDMIILKGVNIFPIQIETILLQFKELGSDYLITLETAESNDEMTVEVELSQLFTDDYGRLQALTREITRQLKDEILVTPRVKLVPKGALPKSEGKAVRVKDLRKTF	soluble
SNAIFMDYYENRKVMAEAQNIYEKSPMEEQSQDGEVRKQFKALQQINQEIVGWITMDDTQINYPIVQAKDNDYYLFRNYKGEDMRAGSIFMDYRNDVKSQNRNTILYGHRMKDGSMFGSLKKMLDEEFFMSHRKLYYDTLFEGYDLEVFSVYTTTTDFYYIETDFSSDTEYTSFLEKIQEKSLYKTDTTVTAGDQIVTLSTCDYALDPEAGRLVVHAKLVKRQ	soluble
SNAMENQKMQEPLVYRRILLTVDEDDNTSSERAFRYATTLAHDYDVPLGICSVLESEDINIFDSLTPSKIQAKRKHVEDVVAEYVQLAEQRGVNQVEPLVYEGGDVDDVILEQVIPEFKPDLLVTGADTEFPHSKIAGAIGPRLARKAPISVIVVR	soluble
SNAMPQQKNFVTMPAQHQNKQPGIESLMNPLPQFEDPNYKGSEKLKGKNVLITGGDSGIGRAVSIAFAKEGANIAIAYLDEEGDANETKQYVEKEGVKCVLLPGDLSDEQHCKDIVQETVRQLGSLNILVNNVAQQYPQQGLEYITAEQLEKTFRINIFSYFHVTKAALSHLKQGDVIINTASIVAYEGNETLIDYSATKGAIVAFTRSLSQSLVQKGIRVNGVAPGPIWTPLIPSSFDEKKVSQFGSNVPMQRPGQPYELAPAYVYLASSDSSYVTGQMIHVNGGVIVNG	soluble
SNAMSKRVLMVVTNHTTITDDHKTGLWLEEFAVPYLVFQEKGYDVKVASIQGGEVPLDPRSINEKDPSWAEAEAALKHTARLSKDDAHGFDAIFLPGGHGTMFDFPDNETLQYVLQQFAEDGRIIAAVCHGPSGLVNATYKDGTPIVKGKTVTSFTDEEEREVGLDVHMPFLLESTLRLRGANFVRGGKWTDFSVRDGNLITGQNPQSSRSTAEKVVAALEERE	soluble
SNAMSLEMFDKEIFDLTNKELERQCEGLEMIASENFTLPEVMEVMGSILTNKYAEGYPGKRYYGGCEFVDEIETLAIERCKKLFNCKFANVQPNSGSQANQGVYAALINPGDKILGMDLSHGGHLTHGAKVSSSGKMYESCFYGVELDGRIDYEKVREIAKKEKPKLIVCGASAYARVIDFAKFREIADEIGAYLFADIAHIAGLVVAGEHPSPFPYAHVVSSTTHKTLRGPRGGIIMTNDEELAKKINSAIFPGIQGGPLMHVIAAKAVGFKFNLSDEWKVYAKQVRTNAQVLANVLMDRKFKLVSDGTDNHLVLMSFLDREFSGKDADLALGNAGITANKNTVPGEIRSPFITSGLRLGTPALTARGFKEKEMEIVSNYIADILDDVNNEKLQENIKQELKKLASNFIIYERAMF	soluble
SNAMTIRFADKADCAAITEIYNHAVLHTAAIWNDRTVDTDNRLAWYEARQLLGYPVLVSEENGVVTGYASFGDWRSFDGFRYTVEHSVYVHPAHQGKGLGRKLLSRLIDEARRCGKHVMVAGIESQNAASIRLHHSLGFTVTAQMPQVGVKFGRWLDLTFMQLQLDEHAAPDAC	soluble
SNAMTKPMIQIALDQTNLTDAVAVASNVASYVDVIEVGTILAFAEGMKAVSTLRHNHPNHILVCDMKTTDGGAILSRMAFEAGADWITVSAAAHIATIAACKKVADELNGEIQIEIYGNWTMQDAKAWVDLGITQAIYHRSRDAELAGIGWTTDDLDKMRQLSALGIELSITGGIVPEDIYLFEGIKTKTFIAGRALAGAEGQQTAAALREQIDRFWP	soluble
SNAMTQFAFVFPGQGSQSVGMLAEMAANYPIVEETFAEASAALGYDLWALTQQGPAEELNKTWQTQPALLTASVALWRVWQQQGGKMPALMAGHSLGEYSALVCAGVINFADAVRLVEMRGKFMQEAVPEGTGGMSAIIGLDDASIAKACEESAEGQVVSPVNFNSPGQVVIAGHKEAVERAGAACKAAGAKRALPLPVSVPSHCALMKPAADKLAVELAKITFSAPTVPVVNNVDVKCETDAAAIRDALVRQLYNPVQWTKSVEFIAAQGVEHLYEVGPGKVLTGLTKRIVDTLTASALNEPAALSAALTQ	soluble
SNASDKGKLSLQDVAELIRARACQRVVVMVGAGISTPSGIPDFRSPGSGLYSNLQQYDLPYPEAIFELPFFFHNPKPFFTLAKELYPGNYKPNVTHYFLRLLHDKGLLLRLYTQNIDGLERVSGIPASKLVEAHGTFASATCTVCQRPFPGEDIRADVMADRVPRCPVCTGVVKPDIVFFGEPLPQRFLLHVVDFPMADLLLILGTSLEVEPFASLTEAVRSSVPRLLINRDLVGPLAWHPRSRDVAQLGDVVHGVESLVELLGWTEEMRDLVQRETGKLDGPDK	soluble
SNAVYGSEVESKIIEFTIVGADEIIAEKLGISVGDFVYKIIRLRIIHSIPTIMEHTWMPIAVIPGVEASVLEESIYSYIQNKLGLKVGTSVVRVKGIRPDDKEKQFMNLTNQDFLMRVEQVAYLTDGRTFEYSYADHLPETFEFETVITAKSYKEA	soluble
SNAYSIALIIPSLFEKACAHFLPSFQQALNKAGYQLLLGYSDYSIEQEEKLLSTFLESRPAGVVLFGSEHSQRTHQLLEASNTPVLEIAELSSKASYLNIGVDHFEVGKACTRHLIEQGFKNVGFIGARGNHSTLQRQLHGWQSAMIENYLTPDHFLTTHEAPSSQLGAEGLAKLLLRDSSLNALVCSHEEIAIGALFECHRRVLKVPTDIAIICLEGSSMGEHAYPSLTSAEFDYERMGTKAAEKLLHAIKGEPEERPTSMGFKLKRRASTAIN	soluble
SNLDGSAQDPEKREYSSVCVGREDDIKKSERMTAVVHDREVVIFYHKGEYHAMDIRCYHSGGPLHLGDIEDFDGRPCIVCPWHKYKITLATGEGLYQSINPKDPSAKPKWCSKGIKQRIHTVTVDNGNIYVTLSNEPFKCDSDFYATGDFKVIKSSS	soluble

— the DeepSol protein solubility set
